Measurements from patent US20140194367A1, “AGROCYBE AEGERITA LECTIN AAL-2, AND ENCODING GENE THEREOF, PREPARATION METHOD THEREFOR AND APPLICATION THEREOF” (WUHAN ALPHA-OMEGA BIOLOGY TECHNOLOGY CO., LTD(CN), priority 2011, published 2014).
Entries after “also recorded” stand apart in the source; their conditions may differ.

Key:
H22 = assay: AAL-2 induced apoptosis of H22 cells, Annexin V/PI flow cytometry; type: cell-based, mouse; conditions: 0.6, 1.2, 2.4 μmol/L; 24 hours and 36 hours; FIG. 6A
Experimental: (§1) The experiment detects the killing activity of Agrocybe aegerita lectin AAL-2 (isolated protein in example 1) to the two tumor cell lines (H22, Huh7). H22 and Huh7 cell lines (purchased from ATCC) are cultured in RPMI1640 medium and DMEM medium (contains 10% fetal bovine serum, […] and 100 U/mL penicillin). Different concentrations of Agrocybe aegerita lectin AAL-2 prepared in the example 1 are added into tumor cells (final concentration is 0.6 μmol/L, 1.2 μmol/L, 2.4 μmol/L) and cultured for 24 hours and 36 hours, respectively. The treated cells are digested into single cell, stained with the Annexin V/PI dye and detected by the flow cytometry.

Huh7 = assay: AAL-2 induced apoptosis of Huh7 cells, Annexin V/PI flow cytometry; type: cell-based; conditions: 0.6, 1.2, 2.4 μmol/L; 24 hours and 36 hours; FIG. 6B
Experimental: as §1

[1] = tested on: mouse hepatoma cell line H22; assay: Tumor growth of H22 tumor bearing mice, in situ tumour injection; type: in vivo, BALB/c mice; conditions: 5 mg/kg in situ tumour injection every other day, 7 injections
Experimental: In this experiment, the BALB/c mice (6-8weeks old, 20 g) are used for the antitumour activity assay. 0.1 ml mouse hepatoma cell line H22 (1×10^7 cells/mL) is subcutaneously inoculated into the oxter area of the BALB/c mice. 7 days after inoculation, inject the Agrocybe aegerita lectin AAL-2 by in situ tumour (protein isolated in example 1) (5 mg/kg, 0.1 ml/mouse). The control group is treated with 0.9% NaCl. Then take the injection every other day, a total of 7 injections, and record the size of the tumor tissue in mice. Tumor size=tumor tissue length L×width W^2/2.

[2] = Carbohydrate binding specificity by glycochip technology; conditions: biotin labeled AAL-2, 200 μg/mL
Experimental: (§2) In order to identify the carbohydrate binding activity of Agrocybe aegerita lectin AAL-2, the Agrocybe aegerita lectin AAL-2 is used to detect 465 kinds of carbohydrate by the glycochip technology.
(§3) Firstly, the purified Agrocybe aegerita lectin AAL-2 (isolated in example 1) is labeled with the biotin and 200 μg/mL AAL-2 incubates the glycochip, then the fluorescein labeled streptavidin combines with the biotin labeled AAL-2. Results are shown in Table 4 (different carbohydrate affinity of AAL-2 arranged from high to low (top of 23 carbohydrates)).

[3] = Glycochip binding, glycan 336
Experimental: as §2, §3

[4] = Glycochip binding, glycan 171
Experimental: as §2, §3

[5] = Glycochip binding, glycan 175
Experimental: as §2, §3

[6] = Glycochip binding, glycan 339
Experimental: as §2, §3

[7] = Glycochip binding, glycan 179
Experimental: as §2, §3

[8] = Glycochip binding, glycan 172
Experimental: as §2, §3

[9] = Glycochip binding, glycan 337
Experimental: as §2, §3

[10] = Glycochip binding, glycan 181
Experimental: as §2, §3

[11] = Glycochip binding, glycan 180
Experimental: as §2, §3

[12] = Glycochip binding, glycan 338
Experimental: as §2, §3

[13] = Glycochip binding, glycan 341
Experimental: as §2, §3

[14] = Glycochip binding, glycan 308
Experimental: as §2, §3

[15] = Glycochip binding, glycan 94
Experimental: as §2, §3

[16] = Glycochip binding, glycan 340
Experimental: as §2, §3

[17] = Glycochip binding, glycan 88
Experimental: as §2, §3

[18] = Glycochip binding, glycan 182
Experimental: as §2, §3

[19] = Glycochip binding, glycan 178
Experimental: as §2, §3

[20] = Glycochip binding, glycan 407
Experimental: as §2, §3

[21] = Glycochip binding, glycan 309; conditions: glycan number 309; 200 μg/mL AAL-2
Experimental: as §2, §3

[22] = Glycochip binding, glycan 176; conditions: glycan number 176; 200 μg/mL AAL-2
Experimental: as §2, §3

[23] = Glycochip binding, glycan 177; conditions: glycan number 177; 200 μg/mL AAL-2
Experimental: as §2, §3

[24] = Glycochip binding, glycan 190; conditions: glycan number 190; 200 μg/mL AAL-2
Experimental: as §2, §3

[25] = Glycochip binding, glycan 17; conditions: glycan number 17; 200 μg/mL AAL-2
Experimental: as §2, §3

[26] = rank of affinity, carbohydrate spectrum of AAL-2

B1: AAL-2: new lectin isolated from Agrocybe aegerita total protein by affinity chromatography; amino acid sequence SEQ ID NO: 2; 43 kDa monomer (protein, listed as Agrocybe aegerita)
chain: MTSNVITQDLPIPVASRGFADIVGFGLDGVVIGRNAVNLQPFLAVKNFAQNAGGWLTTKHVRLIADTTGTGKGDIVGFGNAGVYVSVNNGKNTFADPPKMVIANFGYDAGGWRVEKHLRYLADIRKIGRADIIGFGEKGVLVSRNNGGLNFGPATLVLKDFGYDAGGWRLDRHLRFLADVTGNGHLDIVGFGDKHVFISRNNGDGTFAPAKSVIDNFCIDAGGWKIGDHPRFVADLTGDGTADIIGCGKAGCWVALNNGGGVFGQVKLVINDFGTDKGWQAAKHPRFIADLTGNGRGDVVGFGNAGVYVALNNGDGTFQSAKLVLKDFGVQQGWTVSKHRRFVVDLTGDGCADIIGFGEKETLVSYNDGKGNFGPVKALTNDFSFSGGKWAPETTVCWMANLDSSRH
H22
  apoptosis of H22 cells: apoptosis inducing activity depends on the concentration; also recorded: significantly cause two hepatoma cell lines apoptosis
Huh7
  apoptosis of Huh7 cells: apoptosis inducing activity depends on the concentration; also recorded: significantly cause two hepatoma cell lines apoptosis
[1]; FIG. 7A
  tumor growth (tumor size): significantly inhibited; also recorded: inhibit the tumor growth
[1]; FIG. 7B
  survival time of tumor bearing mice: prolonged obviously; also recorded: prolong the survival time
[2]
  carbohydrate binding specificity: specifically preferentially bind to carbohydrates with N-Acetylglucosamine as the terminal
[3]; glycan number 336, 200 μg/mL AAL-2
  average: 30519
[3]; [26]
  order (glycosyl structure affinity of top 18): 1
[4]; glycan number 171, 200 μg/mL AAL-2
  average: 24487
[4]; [26]
  order (glycosyl structure affinity of top 18): 2
[5]; glycan number 175, 200 μg/mL AAL-2
  average: 21115
[5]; [26]
  order (glycosyl structure affinity of top 18): 3
[6]; glycan number 339, 200 μg/mL AAL-2
  average: 20868
[6]; [26]
  order (glycosyl structure affinity of top 18): 4
[7]; glycan number 179, 200 μg/mL AAL-2
  average: 19530
[7]; [26]
  order (glycosyl structure affinity of top 18): 5
[8]; glycan number 172, 200 μg/mL AAL-2
  average: 19311
[8]; [26]
  order (glycosyl structure affinity of top 18): 6
[9]; glycan number 337, 200 μg/mL AAL-2
  average: 19030
[9]; [26]
  order (glycosyl structure affinity of top 18): 7
[10]; glycan number 181, 200 μg/mL AAL-2
  average: 18737
[10]; [26]
  order (glycosyl structure affinity of top 18): 8
[11]; glycan number 180, 200 μg/mL AAL-2
  average: 17289
[11]; [26]
  order (glycosyl structure affinity of top 18): 9
[12]; glycan number 338, 200 μg/mL AAL-2
  average: 16141
[12]; [26]
  order (glycosyl structure affinity of top 18): 10
[13]; glycan number 341, 200 μg/mL AAL-2
  average: 11672
[13]; [26]
  order (glycosyl structure affinity of top 18): 11
[14]; glycan number 308, 200 μg/mL AAL-2
  average: 11572
[14]; [26]
  order (glycosyl structure affinity of top 18): 12
[15]; glycan number 94, 200 μg/mL AAL-2
  average: 11198
[15]; [26]
  order (glycosyl structure affinity of top 18): 13
[16]; glycan number 340, 200 μg/mL AAL-2
  average: 8758
[16]; [26]
  order (glycosyl structure affinity of top 18): 14
[17]; glycan number 88, 200 μg/mL AAL-2
  average: 8504
[17]; [26]
  order (glycosyl structure affinity of top 18): 15
[18]; glycan number 182, 200 μg/mL AAL-2
  average: 8464
[18]; [26]
  order (glycosyl structure affinity of top 18): 16
[19]; glycan number 178, 200 μg/mL AAL-2
  average: 7339
[19]; [26]
  order (glycosyl structure affinity of top 18): 17
[20]; glycan number 407, 200 μg/mL AAL-2
  average: 6992
[20]; [26]
  order (glycosyl structure affinity of top 18): 18
[21]
  average: 6078
[22]
  average: 5896
[23]
  average: 5782
[24]
  average: 5571
[25]
  average: 5331
